Data on one molecule can be found in patent US20250283063, “NOVEL CRISPR-CAS12I SYSTEMS AND USES THEREOF” (HUIDAGENE THERAPEUTICS (SINGAPORE) PTE. LTD., published 2025).

One series concerns the target T1, hfCas12Max (v6.3) (N243R,E336R,D892R).
T1 chain: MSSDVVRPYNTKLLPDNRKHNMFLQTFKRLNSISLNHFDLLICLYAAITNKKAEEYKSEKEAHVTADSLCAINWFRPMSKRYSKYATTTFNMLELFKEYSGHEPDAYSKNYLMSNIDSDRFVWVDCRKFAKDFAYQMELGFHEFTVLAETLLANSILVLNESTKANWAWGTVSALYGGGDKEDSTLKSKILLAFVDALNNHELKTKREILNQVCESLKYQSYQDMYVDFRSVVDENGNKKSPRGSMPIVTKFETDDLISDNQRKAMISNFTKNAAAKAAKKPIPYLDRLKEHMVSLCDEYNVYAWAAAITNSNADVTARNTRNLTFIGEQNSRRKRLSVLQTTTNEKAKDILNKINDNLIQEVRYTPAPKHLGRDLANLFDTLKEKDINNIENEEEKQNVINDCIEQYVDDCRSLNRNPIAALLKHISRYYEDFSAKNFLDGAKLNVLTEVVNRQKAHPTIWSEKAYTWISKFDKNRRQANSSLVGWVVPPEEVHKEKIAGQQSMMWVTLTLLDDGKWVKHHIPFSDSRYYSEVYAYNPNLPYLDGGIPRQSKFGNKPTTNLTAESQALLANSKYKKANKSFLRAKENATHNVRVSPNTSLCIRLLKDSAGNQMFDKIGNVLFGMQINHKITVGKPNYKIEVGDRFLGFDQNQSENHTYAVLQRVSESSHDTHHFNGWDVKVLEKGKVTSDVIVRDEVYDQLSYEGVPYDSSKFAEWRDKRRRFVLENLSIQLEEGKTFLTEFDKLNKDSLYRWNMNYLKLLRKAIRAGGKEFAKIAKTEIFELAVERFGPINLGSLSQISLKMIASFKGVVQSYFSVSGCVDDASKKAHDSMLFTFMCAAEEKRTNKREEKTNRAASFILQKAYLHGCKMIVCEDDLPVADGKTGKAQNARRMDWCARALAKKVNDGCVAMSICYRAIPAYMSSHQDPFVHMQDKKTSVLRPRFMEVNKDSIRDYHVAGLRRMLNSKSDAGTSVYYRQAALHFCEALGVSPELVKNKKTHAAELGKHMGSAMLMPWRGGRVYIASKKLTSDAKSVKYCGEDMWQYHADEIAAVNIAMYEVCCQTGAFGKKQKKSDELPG
Kind of series: cell_activity; PAM TTTG; on-target. Particulars: tags: NLS.

Series [1] has as its target T2, Cas12Max (xCas12i-N243R, v1.1) (N243R).
T2 chain: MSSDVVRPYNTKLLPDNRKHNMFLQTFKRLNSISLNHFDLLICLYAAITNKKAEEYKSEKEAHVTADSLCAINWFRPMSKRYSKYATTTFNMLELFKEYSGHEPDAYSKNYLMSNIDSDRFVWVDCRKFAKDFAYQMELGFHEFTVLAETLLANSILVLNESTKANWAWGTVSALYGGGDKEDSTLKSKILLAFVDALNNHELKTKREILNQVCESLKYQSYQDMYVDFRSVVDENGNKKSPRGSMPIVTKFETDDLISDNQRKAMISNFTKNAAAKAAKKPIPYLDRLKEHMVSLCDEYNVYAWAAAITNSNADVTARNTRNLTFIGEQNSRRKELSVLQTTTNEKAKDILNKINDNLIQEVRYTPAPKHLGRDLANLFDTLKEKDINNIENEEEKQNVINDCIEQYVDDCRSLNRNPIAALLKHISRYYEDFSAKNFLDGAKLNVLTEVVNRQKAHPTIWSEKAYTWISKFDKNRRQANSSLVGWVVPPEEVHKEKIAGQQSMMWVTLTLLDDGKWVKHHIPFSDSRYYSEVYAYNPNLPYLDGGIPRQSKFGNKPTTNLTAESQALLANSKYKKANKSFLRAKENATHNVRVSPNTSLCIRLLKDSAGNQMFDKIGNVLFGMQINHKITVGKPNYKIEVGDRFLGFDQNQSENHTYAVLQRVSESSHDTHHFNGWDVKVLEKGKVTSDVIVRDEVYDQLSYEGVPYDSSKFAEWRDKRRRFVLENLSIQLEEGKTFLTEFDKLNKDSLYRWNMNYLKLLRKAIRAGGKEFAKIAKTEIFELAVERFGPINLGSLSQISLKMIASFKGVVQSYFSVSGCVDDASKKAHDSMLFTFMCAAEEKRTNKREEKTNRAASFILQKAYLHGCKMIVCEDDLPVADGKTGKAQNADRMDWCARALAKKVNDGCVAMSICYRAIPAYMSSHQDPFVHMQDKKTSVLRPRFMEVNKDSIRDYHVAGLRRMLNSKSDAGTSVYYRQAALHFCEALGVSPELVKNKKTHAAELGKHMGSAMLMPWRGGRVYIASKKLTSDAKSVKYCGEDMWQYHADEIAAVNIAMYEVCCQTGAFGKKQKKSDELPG
Description: cell_activity; PAM TTTG; on-target. Conditions: tags: NLS.

B1: TTR.2 crRNA ; TTR ON.1 (ssRNA ; dsDNA)
RNA: AUGACUCAGAAAUGUGUCCCCAGUUGACACUAGAAGGGAUAUACAAAGUGGA
DNA 1: TTTGTAGAAGGGATATACAAAGTGGA
DNA 2: TCCACTTTGTATATCCCTTCTACAAA
With B1, the values for the activity (with hfCas12Max (v6.3); in series [1]) were 77.7% and 73.8%, respectively.
